Test results as given in US20150274840A1 (GENEFRONTIER, published 2015).

T1: fusion protein of region 399-540 of human ADAM28s added to the C-terminal of MBP (human)
T1 chain: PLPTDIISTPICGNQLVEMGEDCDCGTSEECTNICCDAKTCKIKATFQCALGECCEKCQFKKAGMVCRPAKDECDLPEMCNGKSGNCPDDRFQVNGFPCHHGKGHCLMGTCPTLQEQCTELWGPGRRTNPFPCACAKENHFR

T2: fusion protein of region 491-540 of human ADAM28s added to the C-terminal of MBP (human)
T2 construct: also called MBP-ADAM28s 491-540
T2 chain: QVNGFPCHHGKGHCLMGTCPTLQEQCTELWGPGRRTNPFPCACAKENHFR

T3: peptide #25 of the human ADAM28s peptide array (FTLENFSKWRGS) (human)
T3 construct: 12-mer partial peptide of human ADAM28s, immobilized on an array
T3 peptide: FTLENFSKWRGS

T4: peptide #26 of the human ADAM28s peptide array (ENFSKWRGSVLS) (human)
T4 construct: 12-mer partial peptide of human ADAM28s, immobilized on an array
T4 peptide: ENFSKWRGSVLS

B1: anti-human ADAM28 human antibody 211-14 (antibody, V domains shown)
VH: QVQLQQSGPGLVKPSQTLSLTCAISGDSVSSNTAAWGWIRQSPGRGLEWLGVIYYRSKWYNDYAVSVKSRITINPDTSKNQFSLQLNSVTPEDTAVYYCARYKESIPEYGFDFWGQGTLVTVSS
VL: DIVMTQSPLSLPVTPGEPASISCRSSQSLLYSNGYIYLNWYLQKPGQSPQLLIYLGSNRASGVPDRFSGSGSGTDFTLKISRVEAEDVGVYYCFQYGGSPLTFGQGTKVEIKR
notes: Clone from the HuCAL GOLD phage library, first made as Fab, then converted to IgG (heavy chain constant region IgG1)
B2: anti-human ADAM28 human antibody 211-12 (antibody, V domains shown)
VH: QVQLVQSGAEVKKPGESLKISCKGSGYSFTSYWIAWVRQMPGKGLEWMGIIYPSDSYTRYSPSFQGQVTISADKSISTAYLQWSSLKASDTAMYYCARWSWMGRGFDNWGQGTLVTVSS
VL: DIQMTQSPSSLSASVGDRVTITCRASQDISSYLNWYQQKPGKAPKLLIYGVSTLQSGVPSRFSGSGSGTDFTLTISSLQPEDFATYYCLQYDSLPSTFGQGTKVEIKR
notes: Clone from the HuCAL GOLD phage library, first made as Fab, then converted to IgG (heavy chain constant region IgG1) in HEK293T cells; It was HRP-labeled in the peptide array

Experiments:
[1] = target: T1, fusion protein of region 399-540 of …; test: Western blotting of MBP fusion proteins
[2] = target: T2, fusion protein of region 491-540 of …; test: Western blotting of MBP fusion proteins
[3] = target: T3, peptide #25 of the human ADAM28s …; test: peptide array, HRP-labeled antibody
Method: (§1) Specifically, as shown below, a peptide array consisting of peptides having the residue number of 12 amino acid residues with an offset of 3 amino acid residues were prepared for a sequence covering from the protease domain to the C-terminal of human ADAM28s. HRP-labeled anti-human ADAM28s antibody was reacted with the peptide array.

[4] = target: T4, peptide #26 of the human ADAM28s …; test: peptide array, HRP-labeled antibody
Method: as §1

Binder | binding result [1] | binding result [2] | binding result [3] | binding result [4]
B1 | binds | binds | – | –
B2 | – | – | binds | binds
